{"source": "patent US20230405078A1", "about": "“DETECTION AND TREATMENT OF INTESTINAL FIBROSIS” (THE REGENTS OF THE UNIVERSITY OF CALIFORNIA, priority 2020, published 2023)", "key": {"[1]": {"system": "Human colonic CCD-18Co fibroblasts", "assay": "TGF-β1-induced fibrogenesis in CCD-18Co fibroblasts", "format": "cell-based", "conditions": "TGF-β1-treated CCD-18Co fibroblasts; elafin 1 μg/ml", "description": "Cleveland Clinic IRB directives (IRB #17-1167). Primary non-IBD patient-derived colonic fibroblasts (H6231) were purchased from Cell Biologics. All primary colonic fibroblasts were cultured in fibroblast medium (M2267, Cell Biologics). Human colonic CCD-18Co fibroblasts (ATCC) were cultured in minimal essential medium Eagle's medium (MEM) containing 10% fetal bovine serum and 1% penicillin-streptomycin 6, 20. All fibroblasts were grown to 80% confluence and then switched to serum-free media overnight for experiments.\nFor activation of protease-activated receptors (PARs), fibroblasts were pretreated with 0.8% DMSO, 10 μM PAR1 agonist TRAP-6 (HY-P0078, MCE), 10 μM PAR2 agonist SLIGKV-NH2 (Protease-Activated Receptor-2, amide, HY-P0283, MCE), or 0.4 μg/ml PAR2-activating protease recombinant cathepsin S (1183-CY-010, R&D Systems) for 30 minutes. For miR205-5p activation, fibroblasts were transfected with (30 picomoles/well) either control (YM00479902) or miR205-5p miRCURY LNA mimic (YM00472340) from Qiagen via Lipofectamine 3000 transfection reagent (L3000001, ThermoFisher) in Opti-MEM (#31985062, ThermoFisher) overnight. For miR205-5p inhibition, fibroblasts were pretreated with 50nM either control (Y100199006) or miR205-5p power inhibitors (Y104101508-DDA) from Qiagen overnight. […]"}, "ERK1/2 phosphorylation": {"system": "ERK1/2 phosphorylation", "assay": "Phospho-ERK1/2 ELISA in CCD-18Co fibroblasts", "format": "cell-based, human", "conditions": "elafin 1 μg/ml, 2 hours", "description": "FIG. 27. Elafin inhibited ERK1/2 phosphorylation in intestinal fibroblasts via PAR2. (A) Serum starved CCD-18Co and primary stricturing CD patient-derived colonic fibroblasts were transiently transfected with either control siRNA or ZEB1 siRNA overnight, followed by treatment with 10 ng/ml TGF-β1 or 100 μg/ml stricturing CD patient-derived serum exosomes (CDSE) for 24 hours. (B) CCD-18Co fibroblasts were treated with DMSO, PAR1 inhibitor (SCH79797), or PAR2 inhibitor (GB88) for 2 hours. GB88 inhibited ERK1/2 phosphorylation. (C) CCD-18Co fibroblasts were pretreated with DMSO, PAR1 agonist, or PAR2 agonists for 30 minutes, followed by TGF-β1 10 ng/ml. Two hours later, elafin (1 μg/ml) and incubated for 2 hours. Elafin inhibited ERK1/2 phosphorylation, which was reversed by PAR2 agonist. […] Phospho-ERK1/2, ProCOL1A1, COL1A2, and ZEB1 protein were determined by ELISA. miR205-5p expression was determined by real-time RT-PCR. […]\nFIG. 28. […] (D) Quantification of cathepsin S signals (B7-8) and control signals (A1-2 and E1-2) on the protease array using Bio-Rad Image Lab Software. […] Phospho-ERK1/2 was determined by ELISA. […] ProCOL1A1 and COL1A2 were determined by ELISA. […]"}}}
{"molecule": "Cathepsin S: PAR2-activating protease recombinant cathepsin S (protein) QLHKDPTLDHHWHLWKKTYGKQYKEKNEEAVRRLIWEKNLKFVMLHNLEHSMGMHSYDLGMNHLGDMTSEEVMSLMSSLRVPSQWQRNITYKSNPNRILPDSVDWREKGCVTEVKYQGSCGACWAFSAVGALEAQLKLKTGKLVSLSAQNLVDCSTEKYGNKGCNGGFMTTAFQYIIDNKGIDSDASYPYKAMDQKCQYDSKYRAATCSKYTELPYGREDVLKEAVANKGPVSVGVDARHPSFFLYRSGVYYEPSCTQNVNHGVLVVGYGDLNGKEYWLVKNSWGHNFGEEGYIRMARNKGNHCGIASFPSYPEI", "values": [{"measurement": "effect on elafin-mediated inhibition of collagen expression", "setting": "[1]", "result": "reversed"}, {"measurement": "effect on elafin-mediated inhibition of ERK1/2 phosphorylation", "setting": "ERK1/2 phosphorylation", "result": "reversed"}]}
